Experimental data from the supplement of paper PMC11316812.
± gives the standard deviation of the averaged measurements.

What was measured:
[1] = tested on: MCF7; test: percentage of EdU-negative (G0-arrested) nuclei per well, 72 h; higher = more G0 arrest; conditions: reference: sequence is the full UniProt precursor, the tested protein was the secreted form or ectodomain
[2] = tested on: hTERT-HMEC; test: as above; conditions: reference: sequence is the full UniProt precursor, the tested protein was the secreted form or ectodomain
[3] = protein concentration 0.01925 µM
[4] = protein concentration 0.1925 µM
[5] = protein concentration 0.0257143 µM
[6] = protein concentration 0.257143 µM
[7] = protein concentration 0.0225 µM
[8] = protein concentration 0.00625 µM
[9] = protein concentration 0.0625 µM
[10] = protein concentration 0.0277143 µM
[11] = protein concentration 0.277143 µM
[12] = protein concentration 0.00775 µM
[13] = protein concentration 0.0775 µM
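Also: secreted proteins added to cultured cells, EdU pulse at the end, nuclei found by Hoechst imaging, EdU status from nuclear versus surrounding ring intensity ratio, PBS as neutral control.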

Sequence | percentage of EdU-negative [1, 7] | percentage of EdU-negative ([1]; protein concentration 0.225 µM) | percentage of EdU-negative [2, 7] | percentage of EdU-negative ([2]; protein concentration 0.225 µM) | also measured
MAKGFYISKSLGILGILLGVAAVCTIIALSVVYSQEKNKNANSSPVASTTPSASATTNPASATTLDQSKAWNRYRLPNTLKPDSYRVTLRPYLTPNDRGLYVFKGSSTVRFTCKEATDVIIIHSKKLNYTLSQGHRVVLRGVGGSQPPDIDKTELVEPTEYLVVHLKGSLVKDSQYEMDSEFEGELADDLAGFYRSEYMEGNVRKVVATTQMQAADARKSFPCFDEPAMKAEFNITLIHPKDLTALSNMLPKGPSTPLPEDPNWNVTEFHTTPKMSTYLLAFIVSEFDYVEKQASNGVLIRIWARPSAIAAGHGDYALNVTGPILNFFAGHYDTPYPLPKSDQIGLPDFNAGAMENWGLVTYRENSLLFDPLSSSSSNKERVVTVIAHELAHQWFGNLVTIEWWNDLWLNEGFASYVEYLGADYAEPTWNLKDLMVLNDVYRVMAVDALASSHPLSTPASEINTPAQISELFDAISYSKGASVLRMLSSFLSEDVFKQGLASYLHTFAYQNTIYLNLWDHLQEAVNNRSIQLPTTVRDIMNRWTLQMGFPVITVDTSTGTLSQEHFLLDPDSNVTRPSEFNYVWIVPITSIRDGRQQQDYWLIDVRAQNDLFSTSGNEWVLLNLNVTGYYRVNYDEENWRKIQTQLQRDHSAIPVINRAQIINDAFNLASAHKVPVTLALNNTLFLIEERQYMPWEAALSSLSYFKLMFDRSEVYGPMKNYLKKQVTPLFIHFRNNTNNWREIPENLMDQYSEVNAISTACSNGVPECEEMVSGLFKQWMENPNNNPIHPNLRSTVYCNAIAQGGEEEWDFAWEQFRNATLVNEADKLRAALACSKELWILNRYLSYTLNPDLIRKQDATSTIISITNNVIGQGLVWDFVQSNWKKLFNDYGGGSFSFSNLIQAVTRRFSTEYELQQLEQFKKDNEETGFGSGTRALEQALEKTKANIKWVKENKEVVLQWFTENSK |  |  |  |  | percentage of EdU-negative [1, 3]: 21.5 ± 1.1%; percentage of EdU-negative [1, 4]: 23.6 ± 1.2%; percentage of EdU-negative [2, 3]: 5.56 ± 1.4%; percentage of EdU-negative [2, 4]: 7.09 ± 0.27%
MHLLLFQLLVLLPLGKTTRHQDGRQNQSSLSPVLLPRNQRELPTGNHEEAEEKPDLFVAVPHLVATSPAGEGQRQREKMLSRFGRFWKKPEREMHPSRDSDSEPFPPGTQSLIQPIDGMKMEKSPLREEAKKFWHHFMFRKTPASQGVILPIKSHEVHWETCRTVPFSQTITHEGCEKVVVQNNLCFGKCGSVHFPGAAQHSHTSCSHCLPAKFTTMHLPLNCTELSSVIKVVMLVEECQCKVKTEHEDGHILHAGSQDSFIPGVSA |  |  |  |  | percentage of EdU-negative [1, 5]: 23.4 ± 3.4%; percentage of EdU-negative [1, 6]: 24.2 ± 0.59%; percentage of EdU-negative [2, 5]: 4.67 ± 0.26%; percentage of EdU-negative [2, 6]: 5.44 ± 1.3%
MIFLLLMLSLELQLHQIAALFTVTVPKELYIIEHGSNVTLECNFDTGSHVNLGAITASLQKVENDTSPHRERATLLEEQLPLGKASFHIPQVQVRDEGQYQCIIIYGVAWDYKYLTLKVKASYRKINTHILKVPETDEVELTCQATGYPLAEVSWPNVSVPANTSHSRTPEGLYQVTSVLRLKPPPGRNFSCVFWNTHVRELTLASIDLQSQMEPRTHPTWLLHIFIPFCIIAFIFIATVIALRKQLCQKLYSSKDTTKRPVTTTKREVNSAI [Q9BQ51] | 23.9 ± 0.28% | 24.6 ± 0.78% | 4.79 ± 0.078% | 7.37 ± 0.34% | 
MSVMKPCLMTIAILMILAQKTPGGLFRSHNGKSREPWNPCELYQGMCRNACREYEIQYLTCPNDQKCCLKLSVKITSSKNVKEDYDSNSNLSVTNSSSYSHI [Q30KQ4] | 25.4 ± 1.7% | 23.5 ± 1.3% | 5.55 ± 0.29% | 5.56 ± 0.81% | 
MVGKMWPVLWTLCAVRVTVDAISVETPQDVLRASQGKSVTLPCTYHTSTSSREGLIQWDKLLLTHTERVVIWPFSNKNYIHGELYKNRVSISNNAEQSDASITIDQLTMADNGTYECSVSLMSDLEGNTKSRVRLLVLVPPSKPECGIEGETIIGNNIQLTCQSKEGSPTPQYSWKRYNILNQEQPLAQPASGQPVSLKNISTDTSGYYICTSSNEEGTQFCNITVAVRSPSMNVALYVGIAVGVVAALIIIGIIIYCCCCRGKDDNTEDKEDARPNREAYEEPPEQLRELSREREEEDDYRQEEQRSTGRESPDHLDQ | 26.33 ± 0.14% | 28.18 ± 0.27% | 4.72 ± 0.17% | 5.86 ± 0.41% | 
MRLSPAPLKLSRTPALLALALPLAAALAFSDETLDKVPKSEGYCSRILRAQGTRREGYTEFSLRVEGDPDFYKPGTSYRVTLSAAPPSYFRGFTLIALRENREGDKEEDHAGTFQIIDEEETQFMSNCPVAVTESTPRRRTRIQVFWIAPPAGTGCVILKASIVQKRIIYFQDEGSLTKKLCEQDSTFDGVTDKPILDCCACGTAKYRLTFYGNWSEKTHPKDYPRRANHWSAIIGGSHSKNYVLWEYGGYASEGVKQVAELGSPVKMEEEIRQQSDEVLTVIKAKAQWPAWQPLNVRAAPSAEFSVDRTRHLMSFLTMMGPSPDWNVGLSAEDLCTKECGWVQKVVQDLIPWDAGTDSGVTYESPNKPTIPQEKIRPLTSLDHPQSPFYDPEGGSITQVARVVIERIARKGEQCNIVPDNVDDIVADLAPEEKDEDDTPETCIYSNWSPWSACSSSTCDKGKRMRQRMLKAQLDLSVPCPDTQDFQPCMGPGCSDEDGSTCTMSEWITWSPCSISCGMGMRSRERYVKQFPEDGSVCTLPTEETEKCTVNEECSPSSCLMTEWGEWDECSATCGMGMKKRHRMIKMNPADGSMCKAETSQAEKCMMPECHTIPCLLSPWSEWSDCSVTCGKGMRTRQRMLKSLAELGDCNEDLEQVEKCMLPECPIDCELTEWSQWSECNKSCGKGHVIRTRMIQMEPQFGGAPCPETVQRKKCRIRKCLRNPSIQKLRWREARESRRSEQLKEESEGEQFPGCRMRPWTAWSECTKLCGGGIQERYMTVKKRFKSSQFTSCKDKKEIRACNVHPC [Q9HCB6] |  |  |  |  | percentage of EdU-negative [1, 8]: 24.6 ± 2.6%; percentage of EdU-negative [1, 9]: 24.8 ± 1.8%; percentage of EdU-negative [2, 8]: 4.65 ± 0.17%; percentage of EdU-negative [2, 9]: 6.96 ± 0.65%
MLRMRVPALLVLLFCFRGRAGPSPHFLQQPEDLVVLLGEEARLPCALGAYWGLVQWTKSGLALGGQRDLPGWSRYWISGNAANGQHDLHIRPVELEDEASYECQATQAGLRSRPAQLHVLVPPEAPQVLGGPSVSLVAGVPANLTCRSRGDARPTPELLWFRDGVLLDGATFHQTLLKEGTPGSVESTLTLTPFSHDDGATFVCRARSQALPTGRDTAITLSLQYPPEVTLSASPHTVQEGEKVIFLCQATAQPPVTGYRWAKGGSPVLGARGPRLEVVADASFLTEPVSCEVSNAVGSANRSTALDVLFGPILQAKPEPVSVDVGEDASFSCAWRGNPLPRVTWTRRGGAQVLGSGATLRLPSVGPEDAGDYVCRAEAGLSGLRGGAAEARLTVNAPPVVTALHSAPAFLRGPARLQCLVFASPAPDAVVWSWDEGFLEAGSQGRFLVETFPAPESRGGLGPGLISVLHISGTQESDFSRSFNCSARNRLGEGGAQASLGRRDLLPTVRIVAGVAAATTTLLMVITGVALCCWRHSKASASFSEQKNLMRIPGSSDGSSSRGPEEEETGSREDRGPIVHTDHSDLVLEEEGTLETKDPTNGYYKVRGVSVSLSLGEAPGGGLFLPPPSPLGPPGTPTFYDFNPHLGMVPPCRLYRARAGYLTTPHPRAFTSYIKPTSFGPPDLAPGTPPFPYAAFPTPSHPRLQTHV [Q6UWL6] | 26.9 ± 3.4% | 28.2 ± 1.2% | 5.24 ± 0.16% | 5.69 ± 0.77% | 
MPMASPQTLVLYLLVLAVTEAWGQEAVIPGCHLHPFNVTVRSDRQGTCQGSHVAQACVGHCESSAFPSRYSVLVASGYRHNITSVSQCCTISGLKKVKVQLQCVGSRREELEIFTARACQCDMCRLSRY [Q96T91] | 24.4 ± 0.81% | 22 ± 2.1% | 6.3 ± 1.5% | 4.45 ± 1.1% | 
MAPVAVWAALAVGLELWAAAHALPAQVAFTPYAPEPGSTCRLREYYDQTAQMCCSKCSPGQHAKVFCTKTSDTVCDSCEDSTYTQLWNWVPECLSCGSRCSSDQVETQACTREQNRICTCRPGWYCALSKQEGCRLCAPLRKCRPGFGVARPGTETSDVVCKPCAPGTFSNTTSSTDICRPHQICNVVAIPGNASMDAVCTSTSPTRSMAPGAVHLPQPVSTRSQHTQPTPEPSTAPSTSFLLPMGPSPPAEGSTGDFALPVGLIVGVTALGLLIIGVVNCVIMTQVKKKPLCLQREAKVPHLPADKARGTQGPEQQHLLITAPSSSSSSLESSASALDRRAPTRNQPQAPGVEASGAGEARASTGSSDSSPGGHGTQVNVTCIVNVCSSSDHSSQCSSQASSTMGDTDSSPSESPKDEQVPFSKEECAFRSQLETPETLLGSTEEKPLPLGVPDAGMKPS |  |  |  |  | percentage of EdU-negative [1, 10]: 22.2 ± 1.9%; percentage of EdU-negative [1, 11]: 23.6 ± 1.1%; percentage of EdU-negative [2, 10]: 5.56 ± 0.29%; percentage of EdU-negative [2, 11]: 6.09 ± 1.2%
MVPRISAAIFIFELLGSNSEGVTDLRLWLCQPAPRCGEWTYNPLEQCCDDGVILDLNQTRLCGSSCTFWPCFQHCCLESLGSQNQTVVRFKVPGMKPDCKSSPITRICAQEYHPKSPVSRSDLI [Q6B9Z1] | 24.3 ± 0.92% | 24.9 ± 0.9% | 4.65 ± 1.1% | 5.64 ± 0.86% | 
MAQSRVLLLLLLLPPQLHLGPVLAVRAPGFGRSGGHSLSPEENEFAEEEPVLVLSPEEPGPGPAAVSCPRDCACSQEGVVDCGGIDLREFPGDLPEHTNHLSLQNNQLEKIYPEELSRLHRLETLNLQNNRLTSRGLPEKAFEHLTNLNYLYLANNKLTLAPRFLPNALISVDFAANYLTKIYGLTFGQKPNLRSVYLHNNKLADAGLPDNMFNGSSNVEVLILSSNFLRHVPKHLPPALYKLHLKNNKLEKIPPGAFSELSSLRELYLQNNYLTDEGLDNETFWKLSSLEYLDLSSNNLSRVPAGLPRSLVLLHLEKNAIRSVDANVLTPIRSLEYLLLHSNQLREQGIHPLAFQGLKRLHTVHLYNNALERVPSGLPRRVRTLMILHNQITGIGREDFATTYFLEELNLSYNRITSPQVHRDAFRKLRLLRSLDLSGNRLHTLPPGLPRNVHVLKVKRNELAALARGALVGMAQLRELYLTSNRLRSRALGPRAWVDLAHLQLLDIAGNQLTEIPEGLPESLEYLYLQNNKISAVPANAFDSTPNLKGIFLRFNKLAVGSVVDSAFRRLKHLQVLDIEGNLEFGDISKDRGRLGKEKEEEEEEEEEEEETR [Q7Z5L7] |  |  |  |  | percentage of EdU-negative [1, 12]: 24.5 ± 1.1%; percentage of EdU-negative [1, 13]: 23.2 ± 0.88%; percentage of EdU-negative [2, 12]: 4.64 ± 0.6%; percentage of EdU-negative [2, 13]: 5.72 ± 1.3%
